Measured values taken from patent US8598081B2, “Specific delivery of agrochemicals” (priority 2010, dated 2013).
Changes are numbered by the printed parent chain.

T1: potato lectin (Solanum tuberosum, UniProt Q9S8M0)
T1 construct: purchased Sigma
T1 sequence (Q9S8M0 whole entry, looked up): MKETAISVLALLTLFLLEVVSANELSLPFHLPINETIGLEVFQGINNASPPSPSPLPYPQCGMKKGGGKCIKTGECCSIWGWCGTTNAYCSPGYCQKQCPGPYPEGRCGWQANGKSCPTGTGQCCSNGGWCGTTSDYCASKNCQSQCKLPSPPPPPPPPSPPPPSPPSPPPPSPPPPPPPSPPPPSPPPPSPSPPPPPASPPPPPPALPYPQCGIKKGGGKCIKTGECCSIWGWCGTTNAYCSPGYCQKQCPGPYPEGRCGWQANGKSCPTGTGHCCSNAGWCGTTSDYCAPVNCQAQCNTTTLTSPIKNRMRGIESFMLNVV

B1: VHH 7D2: VHH sequence; SEQ ID NO:28 by order of the list (protein, listed as Lama glama)
VHH: QVQLQESGGGLVQPGRSLKVACAAAGFSLRYYGIGWFRQAPGKEREAVSCTSANDGSTYYRDSVRGRFTISRDDGKNTVYLQMNRLKPEDTAVYYCATTDCDATSWGTWINYYGQGTQVTVSS
modifications: 7D2
B2: VHH 5C4: VHH sequence; SEQ ID NO:18 by order of the list (protein, listed as Lama glama)
VHH: QVQLQESGGGLVQPGGSLRLSCAASGFSLRYFGIGWFRQVAGKEREPVSCSNVRDGNTYYADSVKGRFTISRDNVRNTLYLQMNSLKPEDTAVYSCATTDCEATTWGTYRGYFGQGTQVTVSS
modifications: 5C4
B3: VHH 5G5: VHH sequence; SEQ ID NO:24 by order of the list (protein, listed as Lama glama)
VHH: B2 VHH with V40A, P47G, V48I, T78M, S85N, E89D
modifications: 5G5
B4: Bivalent VHH 3E6: Uvitex-containing microcapsules coupled with bivalent VHH, a fusion of two VHH with a 9 glycine-serine linker (conjugate)
chain: QVQLQESGGGLVQPGGTLSLSCAASGFNVRWYGMGWFRQAPGKEREGVACISALQETTAYADSVKGRFTLSRDNPKNTLSLQMNNLQPEDTGVYYCATTDCDDSSRMTYTSYLGQGTQVTVSSGGGGSGGGSQVQLQESGGGLVQPGGTLSLSCAASGFNVRWYGMGWFRQAPGKEREGVACISALQETTAYADSVKGRFTLSRDNPKNTLSLQMNNLQPEDTGVYYCATTDCDDSSRMTYTSYLGQGTQVTVSSAAAEQKLISEEDLNGAAHHHHHH
B5: VHH 5D4: VHH sequence; SEQ ID NO:20 by order of the list (protein, listed as Lama glama)
VHH: QVQLQESGGGLVQPGGSLRLSCAASGFDMRRFGIGWFRQVAGKEREGVSCSNVHDGTTYYTNDVKGRFTIVRDNTKNMLYLQMNKLRPEDTAVYSCATTDCEATAWGTYRGYFGQGTQVTVSS
modifications: 5D4

Key:
[1] = tested on: gum arabic; experiment: VHH binding to gum arabic in ELISA; set-up: species or system acacia tree
Experimental: Titration of VHH antibody fragments was performed on ELISA plates (Maxisorp, Nunc) coated with 100 μl per well 100 μg/ml gum arabic in 50 mM carbonate pH 9.6. Plates were coated at 4° C. overnight and coating was continued at room temperature for 1 hour on the next day. Plates were washed three times with PBS/0.05%-TWEEN®-20 and blocked with 5% skimmed milk in PBS for 1 hour. Four-fold serial dilutions of purified VHH antibody fragments were prepared in 1% MPBS/0.05%-TWEEN®-20 in polypropylene 96-well plates. Antibody concentrations ranged from 3 μg/ml to 12 ng/ml. Antibody dilutions were transferred to the gum arabic-coated plates and VHH antibody fragments were allowed to bind for 1 hour at room temperature. Bound VHH were detected with sequential incubations with monoclonal mouse anti-histidine antibodies (Abd Serotec) and rabbit anti-mouse IgG whole molecule antibodies conjugated with alkaline phosphatase (RaM/AP) (Sigma) in 1% MPBS/0.05%-TWEEN®-20. Unbound antibodies were removed by washing three times with PBS/0.05%-TWEEN®-20 after each antibody incubation. The plates were washed an additional two times with PBS and 100 μl pNPP disodium hexahydrate substrate (Sigma) was added to each well. The absorbance at 405 nm was measured and plotted as function of antibody concentration (see Table 1).

[2] = target: T1, potato lectin; experiment: VHH binding to potato lectin in ELISA; conditions: Table 2; Blank (no antigen coating); VHH 3 μg/ml
Experimental: ELISA plates (Maxisorp, Nunc) coated with 100 μl per well 100 μg/ml potato lectin (Sigma) in PBS were coated at 4° C. overnight and coating was continued at room temperature for 1 hour on the next day. Plates were washed three times with PBS/0.05%-TWEEN®-20 and blocked with 5% skimmed milk in PBS for 1 hour. VHH (3 μg/ml) were transferred to the potato lectin-coated plates and VHH antibody fragments were allowed to bind for 1 hour at room temperature. Bound VHH were detected with sequential incubations with monoclonal mouse anti-histidine antibodies (Abd Serotec) and rabbit anti-mouse IgG whole molecule antibodies conjugated with alkaline phosphatase (RaM/AP) (Sigma) in 1% MPBS/0.05%-TWEEN®-20. Unbound antibodies were removed by washing three times with PBS/0.05%-TWEEN®-20 after each antibody incubation. The plates were washed an additional two times with PBS and 100 μl pNPP disodium hexahydrate substrate (Sigma) was added to each well and the absorbance at 405 nm was measured (see Table 2).

[3] = target: T1, potato lectin; experiment: ELISA-like assay, microcapsules with monovalent or bivalent VHH, potato lectin; assay type: binding; set-up: Surface area of bound microcapsules: unit not given here
Description: (§1) Bivalent VHH constructs were produced in bacteria by cloning two VHH sequences in tandem into the pASF22 vector, creating a fusion of two VHH with a 9 glycine-serine linker (GGGGSGGGS (SEQ ID NO:50)) in between the two VHH. pASF22 is an in-house produced pMES derivative. The tags that were used were C-terminal c-Myc (EQKLISEEDLN (SEQ ID NO:51)) and hexahistidine (HHHHHH (SEQ ID NO:52)). A triple alanine linker (AAA) was placed in between the C-terminal end of the VHH and the c-Myc tag and a glycine-alanine-alanine (GAA) linker was used in between the C-terminal end of the c-Myc tag and the hexahistidine tag. The complete sequence C-terminal of the bivalent VHH that was used: AAA-EQKLISEEDLN-GAA-HHHHHH (SEQ ID NO:53). Fresh overnight cultures were produced by starting from colony streaks and inoculation of 2×TY media supplemented with 2% glucose and 100 μg/ml ampicillin. The overnight cultures were used to inoculate fresh cultures 1:100 in 2×TY media with 0.1% glucose and 100 μg/ml ampicillin. After growing at 37° C. in a shaking incubator for 3 hours, IPTG was added to a 1 mM final concentration and recombinant bivalent VHH were produced during an additional incubation for 4 hours. Cells were spun down and resuspended in 1/50th of the original culture volume of PBS and incubated with head-over-head rotation at 4° C. for 30 minutes. Spheroplasts were spun down by centrifugation at 3,000 g and 4° C. for 20 minutes. Supernatants were transferred to fresh tubes and centrifuged again at 3,000 g and 4° C. for 20 minutes. The supernatant was collected and sodium chloride concentration was adjusted to 500 mM and imidazole concentration to 20 mM. Hexahistidine-tagged bivalent VHH were purified from the extracts using HisTrap FF Crude 5 ml IMAC columns (GE Lifesciences) and HiLoad 16/60 Superdex 75 prep grade gel filtration column (GE Lifesciences) on an AKTAxpress system (GE Lifesciences) following standard procedures.
(§2) Next, it was investigated if binding of microcapsules to surfaces could be improved by using targeting agents comprising multivalent VHH. A series of parallel couplings was performed with equal amounts of monovalent VHH, bivalent VHH, and unrelated VHH. Success of coupling of VHH and multivalent VHH were analyzed as described in Example 4. An ELISA-like assay was performed using high bind half area microplates (Greiner Bio-One) coated with 5 μg/well potato lectin. Control wells included blank wells or wells coated with unrelated antigens. Plates were washed three times with PBS with 0.05%-TWEEN®-20 and blocked with 5% skimmed milk in PBS for 1 to 2 hours. VHH-coupled Uvitex-containing microcapsules were diluted to appropriate densities in 1% skimmed milk in PBS with 0.05%-TWEEN®-20. Five-fold serial dilution series were prepared and allowed to bind to the surface to compare binding of microcapsules coupled with monovalent or bivalent VHH. Microcapsules were added to the antigen-coated or control wells and allowed to bind for 1 hour. Unbound microcapsules were removed by washing five times with PBS with 0.05%-TWEEN®-20. The bottoms of ELISA plate wells were analyzed for bound microcapsules on a macrozoom microscope system (Nikon). Microcapsules were counted using Volocity image analysis software (Perkin Elmer). A DAPI filter was used to visualize Uvitex microcapsules. […] The surface area of microcapsules with coupled bivalent VHH was 15-fold above the surface area of blank microcapsules applied at this microcapsule density while the surface area of microcapsules with monovalent VHH was only six-fold above the surface area of blank microcapsules applied at this microcapsule density. This difference could be explained by an increase in binding strength due to additional avidity of the bivalent VHH compared to monovalent VHH, it could also be that the use of bivalent VHH increases flexibility and spacer length of the coupled targeting agents on microcapsules, or a combination of both.

[4] = ELISA-like assay, microcapsules with monovalent or bivalent VHH, unrelated antigen; assay type: binding; set-up: unit not given beside the values; conditions: Uvitex microcapsules
Description: as §1, §2

[5] = tested on: leaf surface of potato leaves; experiment: VHH binding to non-fixed leaf discs, potato; set-up: species or system potato (variety Desiree); conditions: 5 μg/ml, detection with anti-histidine Alexa-488
Experimental: VHH binding to non-fixed leaf discs of potato (variety Desiree), black nightshade, grass, wheat or azalea was investigated. For comparison, binding of CBM3a to non-fixed leaf discs of potato (variety Desiree) was analyzed in parallel. Leaf discs were prepared by punching a fresh potato leaf with a 5 mm belt hole puncher tool. Leaf discs were put immediately in wells of a 96-well plate containing 200 μl per well 5% MPBS or PBS, and incubated for 30 minutes. Leaf discs were transferred to solutions containing 5 μg/ml VHH antibody fragment, respectively, 5 μg/ml CBM3a in 2% MPBS or PBS and incubated for 60-90 minutes. Unbound VHH or CBM3a proteins were removed by washing three times with 2% MPBS or PBS. Bound VHH or CBM3a proteins were detected with incubation with monoclonal mouse anti-histidine antibodies directly conjugated with Alexa-488 fluorescent dye (Abd Serotec) in 1% MPBS for 1 hour. Unbound antibodies were removed by washing three times with PBS. Leaf discs were put on glass slides, covered with cover slips, and analyzed by microscopy or on a macrozoom microscope system (Nikon) or a SP5 confocal microscope system (Leica).

[6] = Table 2, gum arabic coating, VHH 3 μg/ml
[7] = [VHH] 3 μg/ml (200 nM), gum arabic − (well without gum arabic)

Molecule	absorbance at 405 nm [1, 6]	absorbance at 405 nm [1, 7]	absorbance at 405 nm [2]	further results
B1	0.274	0.074	0.072	–
B2	0.873	0.082	0.071	–
B3	0.751	0.077	0.073	–
B4	–	–	–	more microcapsules retained in the well compared to microcapsules with monovalent VHH ([3]; application of 25-fold less microcapsules, potato lectin): 160%; more microcapsules retained in the well compared to microcapsules with monovalent VHH ([3]; highest density of microcapsules applied (fully cover the bottom of the well), potato lectin): 17%; Surface area of bound microcapsules ([3]; no coating (first series, with potato lectin rows), surface coverage 100%, Uvitex microcapsules): 66.176; binding to antigen-coated surface when coupled to a microcapsule ([3]; potato lectin 5 μg/well, Uvitex microcapsules): capable of binding specifically; Surface area of bound microcapsules ([3]; potato lectin, surface coverage 4%, Uvitex microcapsules): 155.759; Surface area of bound microcapsules ([3]; potato lectin, surface coverage 20%, Uvitex microcapsules): 511.303; Surface area of bound microcapsules ([3]; potato lectin, surface coverage 100%, Uvitex microcapsules): 490.546; Surface area of bound microcapsules ([4]; no coating (second series, with unrelated antigen rows), surface coverage 100%): 55.841; Surface area of bound microcapsules ([4]; unrelated antigen, surface coverage 20%): 22.114; Surface area of bound microcapsules ([4]; unrelated antigen, surface coverage 100%): 45.677
B5	0.530	0.075	0.072	binding to native potato leaf surface (fluorescence microscopy) [5]: binding leaf surface, stomata, glandular trichomes, and leaf hairs; binding to native potato leaf surface (fluorescence microscopy) ([5]; listed as 5D4): clearly binding to trichomes, stomata and cuticle
